Source: publication PMC11033526 (Journal of Biochemistry, 2023)
No end group written: not given here. *: point of attachment. Biotin = O=C1N[C@H]2[C@H](CS[C@H]2CCCCC(=O)*)N1

Legend:
[1] = biological target: T1, mouse calmodulin (mouse, UniProt P0DP26 1-149); assay: SPR; Biacore 2000; biotinylated T1r peptides on a CAP chip (Biotin CAPture Kit); mCaM injected, 2-fold dilutions from 50 μM, +Ca2+ (1 mM CaCl2), 25°C, 30 μl/min; KD from equilibrium responses, 1:1 model; settings: both partners purified
T1 construct: also called mCaM; CaM; source: E. coli BL21 (DE3) pLysS, purified (Phenyl Sepharose)

[2] = biological target: T1, mouse calmodulin; assay: pull-down; His-tagged ySUMO-fusion protein on Ni-NTA Superflow, ySUMO portion denatured with 6 M guanidine chloride; 0.6 μM mCaM in +Ca2+ buffer (150 mM NaCl, 0.1% Tween 20, 1 mM CaCl2, pH 7.5), 4°C, 2 h; CaM detected by western blot; settings: both partners purified

Row | Kd [1] | binding result [2] | Binder
1 | 27 µM |  | Biotin-GGSGGSPKCYMILFYPERNTSAYFNSMIQGYTMRKS (N-terminal linker segment; mouse T1r2, cytosolic C-terminal region as defined by TMHMM, residues 814-843; source: synthetic peptide (Hokkaido System Science, ~90% purity)) [biotin-mT1r2 CT peptide (cytosolic C-terminal region of mouse taste receptor type 1 subunit 2)]
2 |  | binds | PKCYVILCRPELNNTEHFQASIQDYTRRCGTT (domain or fragment, mouse T1r1, cytosolic C-terminal region (CT), residues 811-842; On the Ni-NTA beads the ySUMO portion was denatured with 6 M guanidine chloride before mCaM was added; also called ySUMO-fusion protein of the mT1r1 C-terminal region; source: E. coli BL21 (DE3), purified (Ni-NTA); not shown: FLAG, N-terminal, kept; ySUMO, N-terminal, kept; His8, C-terminal, kept) [FLAG-ySUMO-mT1r1 CT]
3 |  | binds | PKCYMILFYPERNTSAYFNSMIQGYTMRKS (domain or fragment, mouse T1r2, cytosolic C-terminal region (CT), residues 814-843; On the Ni-NTA beads the ySUMO portion was denatured with 6 M guanidine chloride before mCaM was added; also called ySUMO-fusion protein of the mT1r2 C-terminal region; source: E. coli BL21 (DE3), purified (Ni-NTA); not shown: FLAG, N-terminal, kept; ySUMO, N-terminal, kept; His8, C-terminal, kept) [FLAG-ySUMO-mT1r2 CT]
